Experimental data: patent publication US20170152311A1 (published 2017)

T1: recombinant human M-CSF (human, UniProt P09603 33-190, limits assumed)
T1 construct: The active form is described as a disulfide bonded dimer; also called M-SCF; CSF-1
T1 sequence: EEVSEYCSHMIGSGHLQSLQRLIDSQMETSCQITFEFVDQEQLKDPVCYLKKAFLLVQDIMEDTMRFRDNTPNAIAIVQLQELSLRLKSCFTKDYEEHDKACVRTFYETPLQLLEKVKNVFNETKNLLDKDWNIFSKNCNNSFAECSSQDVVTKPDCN


Tests used:
recombinant human M-CSF [1] = biological target: T1, recombinant human M-CSF; experiment: SPR (Biacore), M-CSF amine-coupled on CM5 chip, antibody flowed
Procedure: (§1) To determine the relative differences in the binding affinity of intact antibodies by Biacore analysis, M-CSF was immobilized onto CMS biosensor chip via amine coupling. 0.05 μg/ml M-CSF in 10 mM Na-Acetate pH 4.0 was injected at 1 μl/min for 5 minutes to achieve RL=6-12 RU. Test antibody or Fab fragments were flowed over the modified biosensor surface at varying concentrations ranging from 100 nM to 1.5 nM in 2-fold dilutions. Test antibodies were diluted in 0.01 M HEPES pH 7.4, 0.15 M NaCL, 3 mM EDTA, 0.005% Surfactant P20 (HBS-EP) and all experiments were done at 25° C. Each concentration point and buffer blanks were run in triplicate, and data was collected over 3 minutes of association and 8 minutes of dissociation. Kinetic and affinity constants were determined using Biaevaluation software with a 1:1 interaction model/global fit.

recombinant human M-CSF [2] = biological target: T1, recombinant human M-CSF; experiment: SPR (Biacore), M-CSF amine-coupled on CM5 chip, antibody flowed 100 nM to 1.5 nM, 25 C, 1:1 model, n = 5
Procedure: as §1

recombinant human M-CSF [3] = biological target: T1, recombinant human M-CSF; experiment: cell-based or functional assay
recombinant human M-CSF [4] = biological target: T1, recombinant human M-CSF; experiment: SPR (Biacore), M-CSF amine-coupled on CM5 chip, antibody flowed, 25 C, 1:1 model, n = 5
Procedure: as §1

recombinant human M-CSF [5] = biological target: T1, recombinant human M-CSF; experiment: SPR (Biacore), M-CSF amine-coupled on CM5 chip, antibody flowed, 25 C, 1:1 model
Procedure: as §1

recombinant human M-CSF [6] = biological target: T1, recombinant human M-CSF; experiment: SPR (Biacore), M-CSF amine-coupled on CM5 chip, antibody or Fab flowed, 25 C, 1:1 model
Procedure: Specifically, M-CSF was immobilized onto CM5 biosensor chip via amine coupling. 0.05 μg/ml M-CSF in 10mM Na Acetate pH 4.0 was injected at 1 μl/min for 5 minutes to achieve RL=6-12 RU. Test antibody (or Fab fragment) were flowed over the modified biosensor surface at varying concentrations. Test antibodies were diluted in 0.01 M HEPES pH 7.4, 0.15 M NaCL, 3 mM EDTA, 0.005% Surfactant P20 (HBS-EP) and all experiments were done at 25° C. Kinetic and affinity constants were determined using Biaevaluation software (Biacore) with a 1:1 interaction model/global fit.

recombinant human M-CSF [7] = biological target: T1, recombinant human M-CSF; experiment: SPR (Biacore), antibody captured on anti-mouse Fc chip, M-CSF flowed, 25 C, 1:1 model
Procedure: Binding properties of the aforementioned antibodies were analyzed using Biacore analyses. […] The aforementioned antibodies were then captured on the anti-mouse Fc/CM5 biosensor chip at 1.5 μg/ml for 3 min at 2 μl/min. MCSF was flowed over the modified biosensor surface at varying concentrations (Rmax ˜15). Test antibodies and antigen were diluted in 0.01 M HEPES pH 7.4, 0.15 M NaCL, 3 mM EDTA, 0.005% Surfactant P20 (HBS-EP). All experiments were performed at 25° C. Kinetic and affinity constants were determined using Biaevaluation software (Biacore) with a 1:1 interaction model/global fit.

recombinant human M-CSF [8] = biological target: T1, recombinant human M-CSF; experiment: SPR (Biacore), M-CSF amine-coupled on CM5 chip, antibody flowed 100 nM to 1.5 nM, 25 C, 1:1 model
Procedure: as §1

Binder	fold decrease in binding affinity compared to the parent murine antibody (recombinant human M-CSF [1])	IC50 Fold Loss (recombinant human M-CSF [3])	Kd (recombinant human M-CSF [5])	koff (recombinant human M-CSF [5])	kon (recombinant human M-CSF [5])	further results
heRX1-1.G2 (antibody, The legends may have 45 and 48 exchanged; also called heRX1-1-IgG2; heRX1-1.IgG2; not shown: human Gamma-2 heavy chain constant region; human Kappa light chain constant region (the printed V regions end in EIKRT, which may overlap its start)) heavy: DVQLQESGPGLVKPSQTLSLTCTVTDYSITSDYAWNWIRQFPGKKLEWMGYISYSGSTSYNPSLKSRITISRDTSKNQFSLQLNSVTAADTATYYCASFDYAHAMDYWGQGTTVTVSS light: EIVLTQSPGTLSVSPGERVTFSCRASQSIGTSIHWYQQKTGQSPRLLIKYASERISGIPDRFSGSGSGTDFTLTISRVESEDFADYYCQQINSWPTTFGQGTKLEIKRT	≥ 7 fold	2.8 fold				Kd (recombinant human M-CSF [2]): 5.9 nM; koff (recombinant human M-CSF [2]): 0.00137 s⁻¹; kon (recombinant human M-CSF [2]): 236000 M⁻¹ s⁻¹; Kd (recombinant human M-CSF [4]): 5.9 nM; koff (recombinant human M-CSF [4]): 0.00137 s⁻¹; kon (recombinant human M-CSF [4]): 236000 M⁻¹ s⁻¹
heRX1-2.G2 (antibody, V domains shown, not shown: human Gamma-2 heavy chain constant region; human Kappa light chain constant region (the printed V regions end in EIKRT, which may overlap its start)) VH: QVQLQESGPGLVKPSQTLSLTCTVSDYSITSDYAWNWIRQFPGKGLEWMGYISYSGSTSYNPSLKSRITISRDTSKNQFSLQLNSVTAADTAVYYCASFDYAHAMDYWGQGTTVTVSS VL: EIVLTQSPGTLSVSPGERVTFSCRASQSIGTSIHWYQQKTGQSPRLLIKYASERISGIPDRFSGSGSGTDFTLTISRVESEDFADYYCQQINSWPTTFGQGTKLEIKR	≥ 7 fold	3.1 fold	7.6 nM	0.00165 s⁻¹	218000 M⁻¹ s⁻¹	
heRX1-3.G2 (antibody, V domains shown, not shown: human Gamma-2 heavy chain constant region; human Kappa light chain constant region (the printed V regions end in EIKRT, which may overlap its start)) VH: DVQLQESGPGLVKPSQTLSLTCTVTDYSITSDYAWNWIRQFPGKKLEWMGYISYSGSTSYNPSLKSRITISRDTSKNQFSLQLNSVTAADTATYYCASFDYAHAMDYWGQGTTVTVSS VL: EIVLTQSPGTLSVSPGERVTFSCRASQSIGTSIHWYQQKTGQAPRLLIKYASERATGIPDRFSGSGSGTDFTLTISRVESEDFADYYCQQINSWPTTFGQGTKLEIKR	≥ 7 fold	5.3 fold	5.9 nM	0.00118 s⁻¹	201000 M⁻¹ s⁻¹	
heRX1-4.G2 (antibody, V domains shown, not shown: human Gamma-2 heavy chain constant region; human Kappa light chain constant region (the printed V regions end in EIKRT, which may overlap its start)) VH: QVQLQESGPGLVKPSQTLSLTCTVSDYSITSDYAWNWIRQFPGKGLEWMGYISYSGSTSYNPSLKSRITISRDTSKNQFSLQLNSVTAADTAVYYCASFDYAHAMDYWGQGTTVTVSS VL: EIVLTQSPGTLSVSPGERVTFSCRASQSIGTSIHWYQQKTGQAPRLLIKYASERATGIPDRFSGSGSGTDFTLTISRVESEDFADYYCQQINSWPTTFGQGTKLEIKR	≥ 7 fold	4.6 fold	4.6 nM	0.00108 s⁻¹	238000 M⁻¹ s⁻¹	
heRX1-5.G2 (antibody, V domains shown, not shown: human Gamma-2 heavy chain constant region; human Kappa light chain constant region (the printed V regions end in EIKRT, which may overlap its start)) VH: DVQLQESGPGLVKPSQTLSLTCTVTDYSITSDYAWNWIRQFPGKKLEWMGYISYSGSTSYNPSLKSRITISRDTSKNQFSLQLNSVTAADTATYYCASFDYAHAMDYWGQGTTVTVSS VL: EIVLTQSPGTLSVSPGERVTFSCRASQSIGTSIHWYQQKTGQSPRLLIKYASESISGIPDRFSGSGSGTDFTLTISRVESEDFADYYCQQINSWPTTFGQGTKLEIKR	≥ 7 fold	6.5 fold	7.4 nM	0.00129 s⁻¹	175000 M⁻¹ s⁻¹	
heRX1-7.G2 (antibody, V domains shown, copies: 2 + 2) VH: DVQLQESGPGLVKPSQTLSLTCTVTDYSITSDYAWNWIRQFPGKKLEWMGYISYSGSTSYNPSLKSRITISRDTSKNQFSLQLNSVTAADTATYYCASFDYAHAMDYWGQGTTVTVSS VL: EIVLTQSPGTLSVSPGERVTFSCRASQSIGTSIHWYQQKTGQAPRLLIKYASESISGIPDRFSGSGSGTDFTLTISRVESEDFADYYCQQINSWPTTFGQGTKLEIK	≥ 7 fold	6.1 fold	9.5 nM	0.00149 s⁻¹	157000 M⁻¹ s⁻¹	
heRX1-8.G2 (antibody, V domains shown, copies: 2 + 2) VH: QVQLQESGPGLVKPSQTLSLTCTVSDYSITSDYAWNWIRQFPGKGLEWMGYISYSGSTSYNPSLKSRITISRDTSKNQFSLQLNSVTAADTAVYYCASFDYAHAMDYWGQGTTVTVSS VL: EIVLTQSPGTLSVSPGERVTFSCRASQSIGTSIHWYQQKTGQAPRLLIKYASESISGIPDRFSGSGSGTDFTLTISRVESEDFADYYCQQINSWPTTFGQGTKLEIK	≥ 7 fold	5.9 fold	9.8 nM	0.00148 s⁻¹	152000 M⁻¹ s⁻¹	
heRX1-9.G2 (antibody, V domains shown, not shown: human Gamma-2 heavy chain constant region; human Kappa light chain constant region (the V region entry may overlap its start)) VH: DVQLQESGPGLVKPSQTLSLTCTVTDYSITSDYAWNWIRQFPGKKLEWMGYISYSGSTSYNPSLKSRITISRDTSKNQFSLQLNSVTAADTATYYCASFDYAHAMDYWGQGTTVTVSS VL: DIVLTQSPAFLSVTPGEKVTFTCQASQSIGTSIHWYQQKTDQAPKLLIKYASESISGIPSRFSGSGSGTDFTLTISSVEAEDAADYYCQQINSWPTTFGGGTKLEIKR	≥ 7 fold	3.6 fold	7.2 nM	0.00144 s⁻¹	200000 M⁻¹ s⁻¹	
murine monoclonal antibody 5H4 (antibody, mouse IgG1, kappa, V domains shown) VH: EIQLQQSGPELVKTGTSVKISCKASGYSFTGYFMHWVKQSHGKSLEWIGYISCYNGDTNYNQNFKGKATFTVDTSSSTAYMQFNSLTSEDSAVYYCAREGGNYPAYWGQGTLVTVSA VL: DIVMTQSHKFMSTSVGDRVTITCKASQNVGTAVTWYQQKPGQSPKLLIYWTSTRHAGVPDRFTGSGSGTDFTLTISDVQSEDLADYFCQQYSSYPLTFGAGTKLELKR						Kd (recombinant human M-CSF [6]): 9.9 nM; koff (recombinant human M-CSF [6]): 0.00126 s⁻¹; kon (recombinant human M-CSF [6]): 127000 M⁻¹ s⁻¹; Kd (recombinant human M-CSF [7]): 3 nM; koff (recombinant human M-CSF [7]): 0.00177 s⁻¹; kon (recombinant human M-CSF [7]): 594000 M⁻¹ s⁻¹
murine monoclonal antibody MC3 (antibody, V domains shown, Hybridoma ATCC PTA-6264) VH: DVQLQESGPGLVKPSQSLSLTCTVTGYSITSDYAWNWIRQFPGNKLEWMGYISYSGSTSYNPSLKSRISITRDTSKNQFFLQLNSVTTEDTATYYCARLETWLFDYWGQGTTLTVSS VL: not shown						Kd (recombinant human M-CSF [7]): 0.27 nM; koff (recombinant human M-CSF [7]): 0.000193 s⁻¹; kon (recombinant human M-CSF [7]): 704000 M⁻¹ s⁻¹
rRX1 Fab (mouse) (Fab, V domains shown, Fab fragment; also called Fab fragment of RX1) VH: DVQLQESGPGLVKPSQSLSLTCTVTDYSITSDYAWNWIRQFPGNKLEWMGYISYSGSTSYNPSLKSRISITRDTSKNQFFLQLNSVTTEDTATYYCASFDYAHAMDYWGQGTSVTVSS VL: not shown						Kd (recombinant human M-CSF [6]): 10.8 nM; koff (recombinant human M-CSF [6]): 0.00303 s⁻¹; kon (recombinant human M-CSF [6]): 281000 M⁻¹ s⁻¹
heRX1-1.G1 (antibody, heavy pMXC29 Low Risk (Kabat), Gamma 1; also called heRX1-1-IgG1; heRX1-1.IgG1; not shown: human Kappa light chain constant region (the printed V regions end in EIKRT, which may overlap its start)) heavy: not shown light: EIVLTQSPGTLSVSPGERVTFSCRASQSIGTSIHWYQQKTGQSPRLLIKYASERISGIPDRFSGSGSGTDFTLTISRVESEDFADYYCQQINSWPTTFGQGTKLEIKRT						Kd (recombinant human M-CSF [8]): 0.95 nM; koff (recombinant human M-CSF [8]): 0.000238 s⁻¹; kon (recombinant human M-CSF [8]): 250000 M⁻¹ s⁻¹
heRX1-1.G4 (antibody, also called heRX1-1-IgG4; heRX1-1.IgG4; not shown: human Kappa light chain constant region (the printed V regions end in EIKRT, which may overlap its start)) heavy: not shown light: EIVLTQSPGTLSVSPGERVTFSCRASQSIGTSIHWYQQKTGQSPRLLIKYASERISGIPDRFSGSGSGTDFTLTISRVESEDFADYYCQQINSWPTTFGQGTKLEIKRT						Kd (recombinant human M-CSF [8]): 1.42 nM; koff (recombinant human M-CSF [8]): 0.000293 s⁻¹; kon (recombinant human M-CSF [8]): 207000 M⁻¹ s⁻¹
